Source: patent US20090035818A1 (NATIONAL UNIVERSITY OF CORPORATION HIROSHIMA UNIVERSITY, published 2009)

T1: fetuin (type III, calf serum) (calf, UniProt P12763 19-359)
T1 sequence (looked up): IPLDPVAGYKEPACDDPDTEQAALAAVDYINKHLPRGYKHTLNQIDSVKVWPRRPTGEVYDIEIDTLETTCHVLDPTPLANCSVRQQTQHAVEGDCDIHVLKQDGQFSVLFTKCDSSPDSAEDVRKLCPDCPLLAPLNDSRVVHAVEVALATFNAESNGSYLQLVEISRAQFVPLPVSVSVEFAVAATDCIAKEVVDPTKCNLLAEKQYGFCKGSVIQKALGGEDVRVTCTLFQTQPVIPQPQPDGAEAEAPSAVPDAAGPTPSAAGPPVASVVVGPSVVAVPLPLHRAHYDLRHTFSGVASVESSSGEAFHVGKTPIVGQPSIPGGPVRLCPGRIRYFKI

T2: asialofetuin (calf, UniProt P12763 19-359, sugar chains desialylated)
T2 sequence (looked up): T1 sequence (looked up)

B1: Eucheuma serra-derived lectin ESA-2 (other)
chain: GRYTVQNQWGGSSAPWNDAGLWILGSRGNQNVMAVDVNSSDGGANLNGTMTYSGEGPIGFKGARRGESNVYDVENQWGGSSAPWHAGGQFVIGSRSGQGVLAVNITSSDGGKTLTGTMTYEREGPIGFKGTQSGGDTYNVENQWGGSSAPWNKAGIWALGDRSGQAMIAMDVSSSDGGKTLEGTMQYKGEGPIGFRGKLSGANNYSVENQWGGSSAPWNAAGDWLIGDRHNQNITAVKVSSDNDGKNLDGTCTYEREGPIGFKGVATS
B2: BML-17 (other)
chain: VIYQDPVTSDMFAKIPMPGHRGPWYVCHSSGDWSRNEPVFGRCAIDAKGMVEAYFPYGGKDIKWPSRWSAVITTGVYWGKYNDWKQADCNGGQQVVDGGRGAVTVRMDGISECKGWTTGKSSHNEVWFGCNGKEVGSWISDTPASDVFPICQEYGAAVKIVHMGRAFN
notes: also called polypeptide isolated from Bryopsis maxima; BML-17 column (immobilised form)

What was measured:
[1] = biological target: T3, chicken egg yolk antibody (chicken IgY antibody) (chicken); experiment: SPR (Biacore 2000), chicken IgY on CM5 chip, lectin as analyte
T3 construct: Purified from egg yolk with the Eggcellent Chicken IgY Purification Kit (Pierce)
Description: Assessment was made as to affinity of the different types of lectins and chicken egg yolk antibody (chicken IgY antibody). Briefly, using Biacore 2000 (BIACORE) that employs the principle of surface plasmon resonance method (hereinafter, “SPR method”), chicken egg yolk antibodies (chicken IgY antibodies) were immobilized as ligands on a sensor chip, and measurements were made according to manuals using each type of lectin solution as an analyte. The SPR technique allows for measurement of specific interactions between biomolecules both quickly and quantitatively, without labeling the biomolecules. According to this technique, the ligands are immobilized on a surface of the sensor chip, which is then supplemented with a solution of substance (analyte) that acts on the ligand. Slight changes in mass caused by the binding and dissociation of the molecules are then detected as changes in SPR signals. The mass change is represented by resonance unit (RU). One thousand RU is equivalent to a change in reflection angle of 0.1° caused by resonance, and it means that the analyte has bound to the ligand at 1 ng/mm². The surface of the sensor chip is coated with dextran, and the ligands are immobilized primarily via carboxyl groups that have been introduced into the dextran.
Affinity between each glycoprotein and each lectin was analyzed by SPR technique. Prior to analysis, preliminary analyses were made to assess analysis methods. […] An analysis program was created using “Customized Application” according to the manual, and a subtraction function was used in which subtraction was made from flow cells that had glycoproteins immobilized thereon, from among four flow cells in the sensor chip. […] Under this analysis program, each analyte (lectin) solution was flown on the sensor chip at a flow rate of 30 μl/min for 3 minutes, and buffer was flown for 3 minutes to measure the amount of lectin that had bonded/dissociated.

[2] = biological target: T1, fetuin (type III, calf serum); experiment: cell-based or functional assay
[3] = biological target: asialomucin (bovine); experiment: cell-based or functional assay
[4] = biological target: T2, asialofetuin; experiment: cell-based or functional assay
[5] = biological target: mucin (bovine submaxillary gland) (bovine); experiment: cell-based or functional assay
[6] = biological target: asialotransferrin (human, UniProt P02787 20-698, sugar chains desialylated by dilute acid treatment; only complex-type sugar chain); experiment: cell-based or functional assay
Sequence of asialotransferrin (P02787 20-698 limits assumed): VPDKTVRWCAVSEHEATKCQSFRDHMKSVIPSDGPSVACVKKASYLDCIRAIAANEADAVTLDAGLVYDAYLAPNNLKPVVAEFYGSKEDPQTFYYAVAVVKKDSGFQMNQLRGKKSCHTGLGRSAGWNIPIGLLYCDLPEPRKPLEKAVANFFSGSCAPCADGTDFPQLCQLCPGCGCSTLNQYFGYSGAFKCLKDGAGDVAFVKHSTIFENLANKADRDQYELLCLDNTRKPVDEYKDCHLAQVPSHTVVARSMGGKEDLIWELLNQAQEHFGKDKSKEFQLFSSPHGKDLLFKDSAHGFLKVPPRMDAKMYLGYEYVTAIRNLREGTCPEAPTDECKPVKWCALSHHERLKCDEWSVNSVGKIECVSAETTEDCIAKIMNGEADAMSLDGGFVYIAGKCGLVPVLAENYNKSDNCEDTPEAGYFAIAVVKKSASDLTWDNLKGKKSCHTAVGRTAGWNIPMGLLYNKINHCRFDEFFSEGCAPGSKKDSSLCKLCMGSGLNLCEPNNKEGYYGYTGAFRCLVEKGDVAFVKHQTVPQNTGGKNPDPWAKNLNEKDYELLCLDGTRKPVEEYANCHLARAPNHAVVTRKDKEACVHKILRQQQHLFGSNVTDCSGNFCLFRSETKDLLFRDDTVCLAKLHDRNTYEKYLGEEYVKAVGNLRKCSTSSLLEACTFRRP

[7] = biological target: transferrin (human) (human, UniProt P02787 20-698); experiment: cell-based or functional assay
Sequence of transferrin (human) (P02787 20-698 limits assumed): as above

Row | Binder | Ka [1] | Kd [1] | koff [1] | kon [1] | Minimum inhibitory concentration (hemagglutination inhibition, trypsin-treated rabbit erythrocytes) [2] | Minimum inhibitory concentration (hemagglutination inhibition, trypsin-treated rabbit erythrocytes) [3] | Minimum inhibitory concentration (hemagglutination inhibition, trypsin-treated rabbit erythrocytes) [4] | Minimum inhibitory concentration (hemagglutination inhibition, trypsin-treated rabbit erythrocytes) [5] | Minimum inhibitory concentration (hemagglutination inhibition, trypsin-treated rabbit erythrocytes) [6] | Minimum inhibitory concentration (hemagglutination inhibition, trypsin-treated rabbit erythrocytes) [7]
1 | B1 | 7.73e+07 M⁻¹ | 12.9 nM | 0.00455 s⁻¹ | 352000 M⁻¹ s⁻¹ | – | – | – | – | – | –
2 | B2 | 8.36e+07 M⁻¹ | 12 nM | 0.00586 s⁻¹ | 490000 M⁻¹ s⁻¹ | 1000 µg/mL | 250 µg/mL | 500 µg/mL | 250 µg/mL | 1000 µg/mL | 2000 µg/mL
